Legend:
[1] = target: T1, human IL-33 (R&D Systems, #3625-IL-010/CF) (human, UniProt O95760 112-270); assay: SPR 25C, pH6.0 chase, mAb captured
T1 construct: Commercial recombinant protein; also called hIL-33; interleukin-33
T1 sequence (looked up): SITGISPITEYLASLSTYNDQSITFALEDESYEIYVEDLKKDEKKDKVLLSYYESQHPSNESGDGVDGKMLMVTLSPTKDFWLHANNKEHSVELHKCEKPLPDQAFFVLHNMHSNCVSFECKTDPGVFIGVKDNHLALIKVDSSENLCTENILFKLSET
How it was run: (§1)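 KD and t½ were derived from kinetic rates (1:1 model) measured by SPR at 25 °C or 37 °C, with human IL-33 or His-tagged cynomolgus IL-33 flowed over mAbs captured by anti-species Fc antibodies. Standard runs in ADA/NaCl/EDTA/Tween buffer at pH 7.4 used 4 min binding and 10 min washout. The low-pH variant switched to pH 6.0 buffer for 3 min after a 30 s neutral dissociation.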

[2] = target: T2, cynomolgus monkey IL-33 expressed with a C-terminal hexahistidine tag (cynomolgus monkey); assay: SPR 25C, pH6.0 chase, mAb captured
T2 construct: also called MfIL-33-6His; Mf-IL-33-6His
T2 chain: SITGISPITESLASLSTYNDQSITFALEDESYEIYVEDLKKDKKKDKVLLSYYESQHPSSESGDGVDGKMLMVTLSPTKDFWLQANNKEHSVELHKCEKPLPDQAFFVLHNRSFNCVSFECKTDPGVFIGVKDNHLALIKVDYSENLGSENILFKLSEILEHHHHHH
How it was run: as §1

[3] = target: T1, human IL-33 (R&D Systems, …); assay: SPR 37C pH7.4, mAb captured
How it was run: as §1

[4] = target: T2, cynomolgus monkey IL-33 expressed with …; assay: SPR 37C pH7.4, mAb captured
How it was run: as §1

[5] = target: T3, biotinylated hIL-33 protein (R&D systems, Cat #3625-IL/CF) (human, UniProt O95760 112-270, biotinylated (sites not given)); assay: competition ELISA, 30 pM biotin-hIL-33 on coated hST2-hFc
T3 construct: Same commercial protein as m21, biotin-labelled; also called biotin-hIL-33
T3 sequence (looked up): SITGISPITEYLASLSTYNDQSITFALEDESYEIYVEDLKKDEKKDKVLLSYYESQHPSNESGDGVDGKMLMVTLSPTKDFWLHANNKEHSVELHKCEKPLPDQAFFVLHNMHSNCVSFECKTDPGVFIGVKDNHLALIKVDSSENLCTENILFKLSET
How it was run: (§2)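 Readout was TMB absorbance at 450 nm after HRP detection (streptavidin for biotin-hIL-33, anti-His for MfIL-33-6His) on human ST2-hFc-coated wells. Antibodies preincubated 1 h at RT with fixed IL-33 (30 pM human, 150 pM cynomolgus) before 1 h plate binding; blockade scaled between IL-33-only and no-IL-33 signals.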

[6] = target: T2, cynomolgus monkey IL-33 expressed with …; assay: competition ELISA, 150 pM MfIL-33-6His on coated hST2-hFc
How it was run: as §2

[7] = target: T1, human IL-33 (R&D Systems, …); assay: SPR 25C pH7.4, mAb captured
How it was run: as §1

[8] = target: T2, cynomolgus monkey IL-33 expressed with …; assay: SPR 25C pH7.4, mAb captured
How it was run: as §1

B1: H4H9676P (antibody, human IgG4, V domains shown)
VH: EVQLVESGGGLVQPGGSLRLSCSASGFTFSSYAMNWVRQAPGKGLEWVTAISGSGGGTYYADSVKGRFTISRDNSKNSLFLQLNSLRAEDTAVYYCAKQTYTSSWYGGFDIWGQGTMVTVSS
VL: DIQMTQSPSSVSASVGDRVTITCRASQGFSSWLAWYQQIPGKAPKLLIYAASRLQSGVPSRFRGSGSGTDFTLTISSLQPEDFATYYCQQANSFPLTFGGGTKVEIK
notes: Human IgG4 Fc (H4H)
**Q.** What does the source list for B1?
**A.** koff [1]: 0.00121 s⁻¹; t½ [1]: 10 min; t½ Ratio (pH 7.4/pH 6.0) [1]: 3.5; koff [2]: 0.00145 s⁻¹; t½ [2]: 8 min; t½ Ratio (pH 7.4/pH 6.0) [2]: 0.4; Kd [3]: 0.922 nM; koff [3]: 0.00128 s⁻¹; kon [3]: 1.38e+06 M⁻¹ s⁻¹; t½ [3]: 9 min; Kd [4]: 7.7 nM; koff [4]: 0.0144 s⁻¹; kon [4]: 1.87e+06 M⁻¹ s⁻¹; t½ [4]: 0.8 min; % Maximum blocking [5]: 54%; IC50 [5]: 0.46 nM; % Maximum blocking [6]: 57%; IC50 [6]: 3.2 nM; Kd [7]: 0.334 nM; koff [7]: 0.000345 s⁻¹; kon [7]: 1.03e+06 M⁻¹ s⁻¹; t½ [7]: 33 min; Kd [8]: 4.84 nM; koff [8]: 0.00412 s⁻¹; kon [8]: 852000 M⁻¹ s⁻¹; t½ [8]: 2.8 min

B2: H1M9559N (antibody, mouse IgG1, V domains shown)
VH: QVQLVESGGGVVQPGRSLRLSCAASGFTFSSYGMHWVRQAPGKGLEWVAVIWYDGRNKYYTDSVKGRFTISRDNSKNTLYLQMDSLRAEDTAVYYCARERYISSYYGGFDPWGQGALVTVSS
VL: DIQMTQSPSSVSASVGDRVTITCRASQGISSWLAWYQQKPGKAPKVLIYAASSLQSGVPSRFSGSGSGTDFTLTISSLQPEDFATYYCQQANSFPFTFGPGTKLDIK
notes: Human variable domains, mouse IgG1 Fc (H1M)
**Q.** Which results are given for B2?
**A.** koff [1]: 0.000187 s⁻¹; t½ [1]: 62 min; t½ Ratio (pH 7.4/pH 6.0) [1]: 0.7; koff [2]: 0.00152 s⁻¹; t½ [2]: 8 min; t½ Ratio (pH 7.4/pH 6.0) [2]: 1.2; Kd [3]: 2.03 nM; koff [3]: 0.000962 s⁻¹; kon [3]: 473000 M⁻¹ s⁻¹; t½ [3]: 12 min; Kd [4]: 7.04 nM; koff [4]: 0.00347 s⁻¹; kon [4]: 493000 M⁻¹ s⁻¹; t½ [4]: 3.3 min; % Maximum blocking [5]: 88%; IC50 [5]: 0.14 nM; % Maximum blocking [6]: 53%; IC50 [6]: 10 nM; Kd [7]: 0.678 nM; koff [7]: 0.000274 s⁻¹; kon [7]: 404000 M⁻¹ s⁻¹; t½ [7]: 42 min; Kd [8]: 3.82 nM; koff [8]: 0.00123 s⁻¹; kon [8]: 321000 M⁻¹ s⁻¹; t½ [8]: 9 min

From patent US20160362487A1 (Regeneron, published 2016)
